Drawing on a protein production outcome set (Wang et al. 2014), this text covers protein production for 22 sequences.

The series can be described thus: label from the status in PepcDB records.
Consider “MFTGSIVALVTPMDEKGNVSRSCLKKLIDYHVANGTSAIVSVGTTGESATLSHDEHGDVVMMTLELADGRIPVIAGTGANATAEAISLTQRFNDSGIVGCLTVTPYYNRPTQEGLFQHFKAIAEHTDLPQILYNVPSRTGCDMLPETVGRLAEIKNIIAIKEATGNLTRVHQIKELVSDDFILLSGDDASALDFMQLGGHGVISVTANVAAREMADMCKLAAEGQFAEARAINQRLMPLHNKLFVEPNPIPVKWACKALGLVATDTLRLPMTPITDHGRDIVKAALQHAGLL”, for which the protein production result is “not failed”.
For the sequence “MFVFGAYWFDCGERAVLPANSRGALRPQCTRLRFWRGRYWHRGAVSALRRVRPLSASTPSPRVLDGSQSLADTPDNVQQLLQHMSQELDSVVQSMVHLEEYALEQVEKLKGAMEADLRKLALYEEEQAFAQKLTEQLQKKEGAVFEAMRHFLFHVVGLQEQTVAITNELQVLHEFVSENHERVELVLESLRERGLFGSRQDVFEGEVKKKLDRFDPEI”, the protein production result is “failed”.
In the case of “MFVQSALHQLKVAVDTSIQMLDQYTEIDLKIAPIQSKRSLFEMYAHLSLICHADLLILNGSTEKELHTFYKEQTPETIAQMQKTMIQGYDLLSKTFLSYSNEQLAEMKTAYWGISYSRFEWLLEIVAHFYHHRGQIHILLCEHMKDPNIPLFQ”, the protein production result is on record as “not failed”.
In the case of “MFVRSHCLEVTNLRKWFYYFNRRNKRMQWLKVILAGFIEIIWVTGLDQAHSLFTWIFTLFFIALSFFLVIDASKHLPVGTVYAFFVGIGAVGTVLVDMIFFNQPFTFTKIFLIMTLILGIIGLKLTTDATKEGR” it was “failed”; in that of “MFWDNLTVAAKFFIEISVELTILFIGITFLVGLSQEYVPDETIKRALGGRNKVIGSILGAGFGAITPFCSCSTIPLLLGMLKAGAPFAAAMAFLFSSPLLNPVIISLFVILLGWKVTALYFVVVFMSTIAIGLLLDWLGFSNQIKPVAVVRNRCDCEQDTNAKSRIQRSAVFAFSLFRQLMPYLLLGAGIGAFIHGFVPTEVITRVAGPSNPLAVPVAAIIGVPIYIRAETMIPIGLALIKKGMSVGAVLALIIGGAGASIPELTLLSSIFKKRLLTAFVITVFSIAVIAGYLANLLTL”, “failed”.
In the case of “MGAIPKTGTISPEQKDSQEKNLFQKIWSWEIGVIPLPLYTVLAVIIILAAYYNELPANMLGGFAIIMILGVFLGDIGQRIPILKDIGGPAILSLFVPSFLVFYNVLNSTSLDAVTNLMKTSNFLYFYIACLVVGSILGMNRIVLIQGFIRMFVPLVAGTIAAVAAGILVGFIFGYSAYDSFFFVVVPIIAGGIGEGILPLSIAYSQILGSSADVFVSQLVPAAIIGNVFAIICAALMKKLGDKRPDLNGNGRLVKSKKANEIFNQKEAEAKIDFKLMGAGVLLACTFFIFGGLLEKFIFIPGAILMIISAAAVKYANILPKKMEEGAYQLYKFISSSFTWPLMVGLGILFIPLDDVASVISIPFVIICISVVIAMIGSGYFVGKLMNMYPVESAIVTCCHSGLGGTGDVAILSASGRMGLMPFAQISTRLGGAGTVICATVLLRFFTS”, the protein production entry is “failed”.
The same measure for “MGARAPFAVAGRGEIGRGQQGQAQPGGMMRALALALLLWPACAAAEFFTLKGHGGPVMGIAVGPEGQIATASFDNSVGLWTGRAPHWFEGHEAAVNTVAFQGGVLYSAGDDFTLRRWPEGTILGRHKGKITGLALSETLAATASWDGTIGLWPLDSRAPRSLDAASGVNAVAFSPDGTLLYSAGMDGVLRLWDVASGSELRQITRHGFGINEIVLNDADGWLAYGAVDGVTRILDLATGAERDFTLDRRPVLALALSPDRSQLAVGDGEGYIMVIDTASWRIARDFRATLRGPVWALAFSPDGANIHAGGIDDTMYSWPVASLSEHGKMASGERSFLKDPDQMDNGERQFARKCSICHALTPEGGRRAGPTLYRVFGRRAGTLPGYLYSDTLAGSDIVWTEESINSLFDLGPDHYIPGSKMPMQRITGAQDRADLIAYLRRATLAKESP”: “failed”; for “MGAVSAFSWASSGRLHALEVFVMKIPKTYDEIMEHFGGLIDEVTAELLESYAKGETVRVSEALAKSGRVAVEGVVLRVFPVRHFSKNGRSGKVGSVVIQDDCTVRVNFWNEAAEIIEAGDIVEGARIKVRGYARGEEIHVNSLSEVEVFVDFVNISELDEKVGERVNVKGFVSGLGEPEKANEIYISDETGRVKVLLENESLYYAVDIGSYVEIYNALAGEDGIYVDRNSRFSVGELEHHHHHH”: “failed”; for “MGCDFAIAKDFLLFFLTKPISMKLSVIIPIYNEIQTIEKILKKITTVMPEIPKEIVMVDDGSKDGTREWLVDTFGDPEQHPVLANVNLAGKFQCFPLDQSAETNGDRQGNSFVMPKEWEVKVIFHRQNQGKGGALHTAFAAATGDVLIIQDADLEYDPEDWGPMWKLIDGGWADVVYGSRFYGNPHRVLYFHHYLGNKLITSLIDLVCNINLTDIEVCYKMFRREVLEDLRLTCNDFGFEVEFTMKVTRSPKRWRIYEVGVAYYGRTFAEGKKINWRDGVKALGYIAKFWLTNALEHHHHHH”: “failed”.
Turning to “MGDEALVVDPLRFIDVYEQVAQQEGVTITHIVDSHLHADHLSGGKALAERTGAAYYLMKSEGAVFDFEPLEQHETIDFENVHLEVLAVKTPGHTPGSVSFFVNGKWLFSGDTIFVGGLGRPDLGGKVAEWAEDLYHTVYEKVAAMADDVIVLPAHYANLDEEINAEGYVGDTLGRIRARNEMMQNKAKDEFIDLVIQGLEHHHHHH”, the protein production entry is on record as “failed”.
The same measure for “MGDGAVKQGFLYLQQQQTFGKKWRRFGASLYGGSDCALARLELQEGPEKPRRCEAARKVIRLSDCLRVAEAGGEASSPRDTSAFFLETKERLYLLAAPAAERGDWVQAICLLAF”: “not failed”; for “MGDNWRYEVKYDGFRTILFWTKETIRLESRNERLLTDQFPEIHDFCQRISNKVEAWLPITIDGELVHLVSPYRAHFAPIQTRSFMRKHETIAASSIKTPATLLAFDILELKGKTLVDLPYDERKKQLKALLKAIDVPLEHHHHHH”: “failed”; for “MGDQRFDVLITGGTLVDVVTGELRPADIGIVGALIASVHEPASRRDAAQVIDAGGAYVSPGLIDTHMHIESSMITPAAYAAAVVARGVTTIVWDPHEFGNVHGVDGVRWAAKAIENLPLRAILLAPSCVPSAPGLERGGADFDAAILADLLSWPEIGGIAEIMNMRGVIERDPRMSGIVQAGLAAEKLVCGHARGLKNADLNAFMAAGVSSDHELVSGEDLMAKLRAGLTIELRGSHDHLLPEFVAALNTLGHLPQTVTLCTDDVFPDDLLQGGGLDDVVRRLVRYGLKPEWALRAATLNAAQRLGRSDLGLIAAGRRADIVVFEDLNGFSARHVLASGRAVAEGGRMLVDIPTCDTTVLKGSMKLPLRMANDFLVKSQGAKVRLATIDRPRFTQWGETEADVKDGFVVPPEGATMISVTHRHGMAEPTTKTGFLTGWGRWNGAFATTVSHDSHNLTVFGGNAGDMALAANAVIGTGGGMAVASEGKVTAILPLPLSGLVSDAPLEEVARAFEDLREAVGKVVEWQPPYLVFKACFGATLACNIGPHQTDMGIADVLTGKVMESPVIEVLEHHHHHH”: “failed”.
The same measure for “MGDSMSLDWDKLRIFHAAAEAGSFTHAADKLHLSQSAISRQVSSLEQDVGIKLFHRHARGLILTEQGEMLYRTAHDVLMKLESVKAQLSETTDKPSGKLRITTTVGLGQGWLTDKIQEFMSLYPEIQVQLILDNEELDVNMRHADCAIRLRQPQQSDLIQRKLFTVHMHVYAAPSYINKYGEPQSLDDLDNHRIITFGEPAPNYLLDVNWLEIAGRDSDNPRISHLQINSQTSIKRACLLGIGIAMLPDYIVGRDPGLIQLPISADIPSFDTYFCYPDELKNAAKLKVFRDYIVAKARNWNF”: “failed”; for “MGDSPMNKNAKPDLAGTAALALDKGDPLLTPASVSQRDDARSQQPLGREALDVFVAWSIIGIFLIMSMAVIHELSMILMPVVMAVVVGMILGISAEKLASYGIPGAGVALILSTLVAAVIFFVVNSLIDPVSQLATEGPALIERSIDRFLPYVQNLRWLNISAATFSMGSMSMESLISRSGEIITLLGANVTPAIVQGLIFLAALLMFLYSRLRLRKALIMVFPARHQRLRTIRIIGSVEKVLGTYFATASLIYAALGVTMIVIAYVGGLSMPLLWGLFAFLSSFVPFLGITLMTISLTIAGIIAHDNMILALLPAGVFFTIHLLMENLAFPAVVGRNMEINPFLVFVMIIFWTWMWGAAGAMLALPLSLIAMTVTRELFPSRRVVPKLPD”: “failed”.
As to “MGEMAPTLVLKNATYLNSVRGKWLDANIWIYQDRIVYVGQDMPAKLDDETEVVDCGQQVIVPGYIEHHAHPFQLYNPHSFANYAAAMGTTTLINDNLEHHHHHH”, the protein production result was “not failed”.
In the case of “MGENNSHKHSLLFIVLISCAAGLGGLLYGYDTAVISGAIGFLKKLYNLSPAMQGFVISSIMVGGVLGVGFSGFLGDAIGRRKVLMLAAALFAISAVISSISTSAFMLIFARIVGGLGIGMASALSVTYITECAPPSIRGRLSSLYQLFTILGISITFFVNLGIVNMGSETWRVSTGWRYMLACGTVPAIVFLITLFFVPESPRFLVKSGNIKKAAAVLTKINGAEIAKQELDSISKSLATENDSSLGQLLQPGLRRALLIGIFLAIFNQAIGMNSITYYGPEIFQMIGFKNNSSFLATSVIGVVEVFSTILAMFLIDKLGRKKLMEIGSAAMAVFMLLIGTSFYIKLSNGFVILIFIICFVVSFCISMGPIPWIMIPEIFPNHLRARATGIATIFLWGANWAIGQFTPMLLNGIGGAYTFWIFCGINVICFLVVTTKVPETKNKSLEEIEKFWIPKSKQNAKGSSVGAK”, the protein production result is on record as “failed”.
The same measure for “MGERIIPKNMKPMNGMLLEHLARYYFSTPYASGRVLDIACGTGYGSVMVAKTRKTEVDQVLGVDFDADVIHYAKQNYYHPKVSFLVGDAMDPYLRNQIGTFDTILSFETIEHVKDDRLFIERMRQLLKKDGTLVLSTPFGQGRGKPSDEPFHYHQLTEEEFRSLFDSFSEKEVFYQRGVTIEPKRTNVHYAFGVAVCKLEHHHHHH”: “failed”; for “MGERSDSRLAAMRTDELNIDVVLVQRLVAGQFPRWAGLGVEAVDSGGTSNAMYRLGADLVVRLPRRAGAEGDVAKEHRWLPWLAPRLPVAVPVPLGQGLPAGNYPFRWSVYRWLDGATPDVGHLVAPGLLAEDLAGFIDALHRVDPAGGPDSYRSEHLAVRDTVTREAIEELRGVVDADAARAVWETALRAPVWAGPPVWIHADLQPGNVLVDRGRLGAVIDFGCLGLGDPAVDLIVAWYVLPGDVREAFRAAVAADDASWARGRGWALSIALVELRYYRDTNPVMAGHARRVIREVLDGRER”: “failed”; for “MGEVWTWIISFLILITLLGLIVYQLISLADLEFDYINPYDSASRINFVVLPESILQGFLCVFYLVTGHWFMALLCVPYLYYNFHLYSRKQHLIDVTEIFNLLDWEKKKRLFKLAYIILTLFLTIFWLIYSTLDDYED”: “failed”.
The same measure for “MGFFSRDIQTMEDLLLHGLRDIYYAEQQITKALPKMIEQATNRDLSQGLTSHLEETQKQIERLDQVFKKLGQKPSGVNCPAIDGLIKEADETAGEIADKTVLDAAIVANAQAVEHYEIARYGTLIAWAEELGHDDIVRFLTTNLNEEKAANTKLNTVALRKGVNRKAAS”: “not failed”; for “MGFIGSGSIGGTIARLAVAAGHQVVLSNSRGPGSLADTVAELGPRASAATSEEAAAAGDIVVVTVPVTAFPDLPAAPLAGKTVIDTCNYGPERDGHIPELDGTSLTSSELLLRYVPGAMLVKGFNNIYFKHLLSLARPAGATDRSYLPIAGDLAPAKAAATEFIDSIGYGVVDAGLLADSWRQATGTPVWGTPYGPPSNEMGRPTGPGAIRAALATATR”: “failed”.
